# In article PMC3215713, “Probing the Limits of Aptamer Affinity with a Microfluidic SELEX Platform”:
# B1: Thr-08 (ssDNA)
# DNA: AGCAGCACAGAGGTCAGATGCAGCGCTAGGGCTTTTAGCGTAATGGGTAGGGTGGTGCGGTGCAGATATCGGAATTGGTGCCTATGCGTGCTACCGTGAA
# B2: PDGF-09 (ssDNA)
# DNA: AGCAGCACAGAGGTCAGATGGAATCATGATCCCCCATGACCTGGGGGCGTTACTGGCGAGCATCATGAGAGATCGTGCGACCTATGCGTGCTACCGTGAA
# B3: ApoE-06 (Ahmad 2011) (ssDNA)
# DNA: AGCAGCACAGAGGTCAGATGACTAGCTACGGGGTGGGTGGGCGGTGTCAGTTTGTTTATTGGTGCTATACATCCTCTATACCTATGCGTGCTACCGTGAA
# What was measured:
# [1] = target: T1, Bovine serum albumin (Bos taurus (Bovine), UniProt P02769 25-607); test: pulldown; 50 mM Tris pH 7.5, 100 mM NaCl, 1 mM MgCl2, 5 mM KCl, 1 mM CaCl2, 0.025% Tween 20, RT; settings: label: 5'-Alexa Fluor 488
# T1 sequence (P02769 25-607): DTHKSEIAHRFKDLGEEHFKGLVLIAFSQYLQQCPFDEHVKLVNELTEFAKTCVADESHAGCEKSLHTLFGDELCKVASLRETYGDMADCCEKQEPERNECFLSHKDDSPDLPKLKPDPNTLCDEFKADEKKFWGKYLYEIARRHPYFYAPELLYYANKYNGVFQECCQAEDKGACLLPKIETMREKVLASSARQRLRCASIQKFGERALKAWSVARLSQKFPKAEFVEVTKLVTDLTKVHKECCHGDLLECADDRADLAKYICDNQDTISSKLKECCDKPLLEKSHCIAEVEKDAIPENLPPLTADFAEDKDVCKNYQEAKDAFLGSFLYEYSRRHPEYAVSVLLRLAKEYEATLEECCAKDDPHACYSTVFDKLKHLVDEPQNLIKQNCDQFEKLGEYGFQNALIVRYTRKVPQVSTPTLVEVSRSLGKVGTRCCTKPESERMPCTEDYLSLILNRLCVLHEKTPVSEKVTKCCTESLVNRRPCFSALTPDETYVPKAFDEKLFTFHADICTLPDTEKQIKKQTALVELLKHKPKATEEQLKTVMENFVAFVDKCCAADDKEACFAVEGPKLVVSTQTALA
# [2] = target: T1, Bovine serum albumin; test: pulldown; PBS pH 7.4, 1 mM MgCl2, 0.025% Tween 20, RT; settings: label: 5'-Alexa Fluor 488
# [3] = target: PDGF-BB (platelet-derived growth factor BB) (UniProt P01127 82-190); test: bead-based fluorescence; PDGF-BB and ApoE: PBS pH 7.4, 1 mM MgCl2, 0.025% Tween 20; thrombin: 50 mM Tris pH 7.5, 100 mM NaCl, 1 mM MgCl2, 5 mM KCl, 1 mM CaCl2, 0.025% Tween 20; 1 h, room temperature; settings: protein: commercial; chain copies: 2; label: 5'-FAM
# Chain of PDGF-BB (platelet-derived growth factor BB) (P01127 82-190): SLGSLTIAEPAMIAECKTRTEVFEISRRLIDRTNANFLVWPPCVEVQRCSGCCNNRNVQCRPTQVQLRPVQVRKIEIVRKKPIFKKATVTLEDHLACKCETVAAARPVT
# [4] = target: thrombin (UniProt P00734;P00734 315-363;364-622); test: bead-based fluorescence; PDGF-BB and ApoE: PBS pH 7.4, 1 mM MgCl2, 0.025% Tween 20; thrombin: 50 mM Tris pH 7.5, 100 mM NaCl, 1 mM MgCl2, 5 mM KCl, 1 mM CaCl2, 0.025% Tween 20; 1 h, roo
Binder,binding result [2],Kd [4] [nM],also measured
B1,–,–,binding result [1]: no binding
B2,no binding,–,–
CACAGGCTACGGCACGTAGAGCATCACCATGATCCTGTG (ssDNA) [Green PDGF aptamer 36t],–,–,Kd [3]: 0.12 nM
AGTCCGTGGTAGGGCAGGTTGGGGTGACT (ssDNA) [Tasset thrombin aptamer 60-18[29]],–,11.9,–
GGTTGGTGTGGTTGG (ssDNA) [Bock thrombin aptamer (consensus 15-mer)],–,1.2,–
B3,no binding,–,–
